Data: US11731099B2, “Method for controlling encapsulation efficiency and burst release of water soluble molecules from nanoparticles and microparticles produced by inverse flash nanoprecipitation” (The Trustees of Princeton University, priority 2018, dated 2023)

Experiment: Burst release of lysozyme from coated nanoparticles in release media
Format: physicochemical
Conditions: PBS with 0.2 wt % Tween-20 versus PBS, 37° C.

Substance: lysozyme
- increase of burst release in presence of surfactant: 25%
